Measured values reported in paper PMC3906126 (2013).

Target: T1, ErbB4 PY3 motif (Homo sapiens, UniProt Q15303)
T1 chain: KPGTVLPPPPYRHRNTVV

DSEDELPPGWEERTTKDGWVYYANHTEEKTQWEHPKTGKR [WWOX WW1]
Kd: ~100 µM
